Results on 2 molecules are retold here after publication PMC11784651 (mAbs, 2025).

This assay addresses human CD38 extracellular domain (hsCD38 ECD) used for crystallization (Homo sapiens, stabilised). The assay can be described thus: crystal structure.

B1: anti-CD38 B6-D9 Fab (Fab, V domains shown)
VH: QVQLVQSGAEVKKPGSSVKVSCKASGGFFSHYIINWVRQAPGQGLEWMGRVIPVIDDAYYAQKFQGRVTITADESTSTAYMELSSLRSEDTAVYYCARSRGYYGSFYFDIWGQGTLVTVSS
VL: not shown
Regarding B1, the binding result is given as “binds”.

B2: anti-CD38 E2-RecA Fab (Fab, V domains shown)
VH: QVQLVQSGAEVKKPGSSVKVSCKASGLPDATYAIGWVRQAPGQGLEWMGRIIPRLDAEHYAQKFQGRVTITADESTSTAYMELSSLRSEDTAVYYCARGLGYYLYSSYYFDIWGQGTLVTVSS
VL: not shown
B2: the binding result was “binds”.
